# Test results taken from IntAct's records for PubMed 30559186.
# Biological target: bi1_human TMBIM6 (UniProt P55061)
# Sequence (P55061 whole entry): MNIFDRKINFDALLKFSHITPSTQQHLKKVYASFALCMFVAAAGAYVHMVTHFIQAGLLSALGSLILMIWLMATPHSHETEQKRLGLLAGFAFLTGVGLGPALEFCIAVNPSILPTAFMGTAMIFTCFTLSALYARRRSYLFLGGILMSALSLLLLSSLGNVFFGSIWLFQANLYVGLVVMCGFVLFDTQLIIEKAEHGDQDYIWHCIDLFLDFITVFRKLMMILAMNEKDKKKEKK
row,effect of a mutation on the interaction,Substance
1,with no effect,Presenilin-1 (Homo sapiens) (from UniProt P49768) V272A
2,with no effect,Presenilin-1 (Homo sapiens) (from UniProt P49768) I439V
3,with no effect,Presenilin-1 (Homo sapiens) (from UniProt P49768) M233L
4,with no effect,Presenilin-1 (Homo sapiens) (from UniProt P49768) S169P
5,with no effect,Presenilin-1 (Homo sapiens) (from UniProt P49768) L381V
6,with no effect,Presenilin-1 (Homo sapiens) (from UniProt P49768) P284S
7,with no effect,Presenilin-1 (Homo sapiens) (from UniProt P49768) I143V
